Patent US7527793 (RUSH UNIVERSITY MEDICAL CENTER, dated 2009)

B1: CD33 peptide ALLALCLCL (residues 269-277, SEQ ID NO: 8) (peptide)
peptide: ALLALCLCL
notes: also called CD33269-277
B2: CD33 peptide TIQLNVTYV (residues 226-234, SEQ ID NO: 9) (peptide)
peptide: TIQLNVTYV
notes: Native CD33 nonamer, extracellular domain; also called CD33226-234
B3: YIISGDSPV (SEQ ID NO: 3) (peptide)
peptide: YIISGDSPV
notes: Modified CD33 peptide
B4: YIISGDLPV (SEQ ID NO: 13) (peptide)
peptide: YIISGDLPV
notes: Modified CD33 peptide
B5: YIIIGDSPV (SEQ ID NO: 11) (peptide)
peptide: YIIIGDSPV
notes: Modified CD33 peptide
B6: YIILGDSPV (SEQ ID NO: 12) (peptide)
peptide: YIILGDSPV
notes: Modified CD33 peptide
B7: YLISGDSPV (SEQ ID NO: 7) (peptide)
peptide: YLISGDSPV
notes: Modified CD33 peptide
B8: YIISGDSPL (SEQ ID NO: 15) (peptide)
peptide: YIISGDSPL
notes: Modified CD33 peptide
B9: YIGSGDSPV (SEQ ID NO: 10) (peptide)
peptide: YIGSGDSPV
notes: Modified CD33 peptide
B10: ALISGDSPV (SEQ ID NO: 16) (peptide)
peptide: ALISGDSPV
notes: Modified CD33 peptide
B11: YIISGISPV (SEQ ID NO: 6) (peptide)
peptide: YIISGISPV
notes: Modified CD33 peptide
B12: YIISGDSWV (SEQ ID NO: 14) (peptide)
peptide: YIISGDSWV
notes: Modified CD33 peptide

Assays:
HLA-A2.1 on T2 cells [1] = molecular target: T1, HLA-A2.1 on T2 cells (human); assay: T2 peptide binding assay with beta2-microglobulin, anti-HLA-A2.1 staining, flow cytometry; index against T2 + beta2-microglobulin only (1.0)
T1 construct: Peptide-receptive HLA-A2.1 on T2 cells; also called HLA-A2.1 MHC class I molecules
Protocol: T2 cells were washed and resuspended in serum-free AIM-V™ (Gibco-Life Technologies, Rockville, Md.) at a final concentration of 1 ×10^6 cells/ml and transferred into a 24-well tissue culture plate. […] After incubation, cells were washed once with PBS containing 3% FCS, and stained with mouse anti-HLA-A2.1 monoclonal antibody for 15 minutes at 4° C. After washing, the cells were incubated with goat anti-mouse IgG (F(ab')_2)-FITC for 15 minutes at 4° C. The cells were washed once, and fluorescence was measured on a FACSort™ flow cytometer (Becton Dickson, San Jose, Calif.). The fluorescence index was calculated as follows: (mean channel fluorescence of sample–mean channel fluorescence of unstained control cells)/mean channel fluorescence of unstained control cells.

HLA-A2.1 on T2 cells [2] = molecular target: T1, HLA-A2.1 on T2 cells; assay: peptide binding to HLA-A2.1+ T2 cells, complex stability; no Brefeldin A (T2 alone 215)
HLA-A2.1 on T2 cells [3] = molecular target: T1, HLA-A2.1 on T2 cells; assay: peptide binding to HLA-A2.1+ T2 cells, complex stability; Brefeldin A 0 hr (T2 alone 226)
HLA-A2.1 on T2 cells [4] = molecular target: T1, HLA-A2.1 on T2 cells; assay: peptide binding to HLA-A2.1+ T2 cells, complex stability; Brefeldin A 2 hr (T2 alone 200)
HLA-A2.1 on T2 cells [5] = molecular target: T1, HLA-A2.1 on T2 cells; assay: peptide binding to HLA-A2.1+ T2 cells, complex stability; Brefeldin A 6 hr (T2 alone 157)
HLA-A2.1 on T2 cells [6] = molecular target: T1, HLA-A2.1 on T2 cells; assay: peptide binding to HLA-A2.1+ T2 cells, complex stability; Brefeldin A overnight (T2 alone 255)
HLA-A2.1 on T2 cells [7] = molecular target: T1, HLA-A2.1 on T2 cells; assay: peptide binding to HLA-A2.1+ T2 cells, complex stability; Brefeldin A 4 hr (T2 alone 187)

Binder	Fluorescence Index (HLA-A2.1 on T2 cells [1])	binding score (HLA-A2.1 on T2 cells) (HLA-A2.1 on T2 cells [2])	binding score (HLA-A2.1 on T2 cells) (HLA-A2.1 on T2 cells [3])	binding score (HLA-A2.1 on T2 cells) (HLA-A2.1 on T2 cells [4])	binding score (HLA-A2.1 on T2 cells) (HLA-A2.1 on T2 cells [5])	binding score (HLA-A2.1 on T2 cells) (HLA-A2.1 on T2 cells [6])	binding score (HLA-A2.1 on T2 cells) (HLA-A2.1 on T2 cells [7])
B1	1.04	–	–	–	–	–	–
B2	0.99	175	218	173	159	404	180
B3	–	547	641	588	216	248	380
B4	–	619	724	524	203	296	307
B5	–	263	301	257	172	325	208
B6	–	465	488	315	173	323	205
B7	–	701	728	810	594	479	745
B8	–	428	426	334	168	157	217
B9	–	515	687	–	151	–	167
B10	–	603	677	882	609	366	692
B11	–	591	840	929	680	593	839
B12	–	209	247	247	173	298	208
